In patent US20220235136A1 (YALE UNIVERSITY, published 2022):

T1: human CD93 on cells (CD93-transfected HEK293T cells; endogenous on HUVEC cells) (human, UniProt Q9NPY3 22-652)
T1 construct: in the co-immunoprecipitation it comes from HUVEC lysate; also called CD93 transfectant; CD93+ 293 cells
T1 sequence: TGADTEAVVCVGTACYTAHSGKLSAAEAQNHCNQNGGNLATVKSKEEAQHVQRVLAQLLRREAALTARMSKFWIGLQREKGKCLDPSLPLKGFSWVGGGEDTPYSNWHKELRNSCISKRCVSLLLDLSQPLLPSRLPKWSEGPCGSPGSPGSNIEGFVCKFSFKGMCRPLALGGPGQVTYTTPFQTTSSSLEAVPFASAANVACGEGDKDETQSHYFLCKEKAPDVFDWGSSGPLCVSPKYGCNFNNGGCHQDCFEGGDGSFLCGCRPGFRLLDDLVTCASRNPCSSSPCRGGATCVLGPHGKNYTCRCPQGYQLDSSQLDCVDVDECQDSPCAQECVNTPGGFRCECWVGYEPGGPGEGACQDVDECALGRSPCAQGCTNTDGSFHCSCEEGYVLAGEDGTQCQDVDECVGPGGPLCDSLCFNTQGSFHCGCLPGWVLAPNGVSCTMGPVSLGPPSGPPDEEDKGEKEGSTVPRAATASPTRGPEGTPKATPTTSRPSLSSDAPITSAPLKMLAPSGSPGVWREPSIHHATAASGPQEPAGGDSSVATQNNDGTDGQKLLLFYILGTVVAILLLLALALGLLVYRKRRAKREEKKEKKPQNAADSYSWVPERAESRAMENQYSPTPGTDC


These binders were tested against T1, human CD93 on cells (CD93-transfected …) (assay: flow cytometry, HEK293T supernatant on CD93 transfectant; binding index = MFI of CD93 transfectant / MFI of control).

Row | binding result | Binder
1 | binds | IGFBP7 fused to a C-terminal Ig (made in transfected HEK293T cells, used as supernatant) (Fc fusion, not shown: a dimerising Fc or GST; small tags and cut ends, also called Fc tagged fusion protein of IGFBP7) SSSDTCGPCEPASCPPLPPLGCLLGETRDACGCCPMCARGEGEPCGGGGAGRGYCAPGMECVKSRKRRKGKAGAAAGGPGVSGVCVCKSRYPVCGSDGTTYPSGCQLRAASQRAESRGEKAITQVSKGTCEQGPSIVTPPKDIWNVTGAQVYLSCEVIGIPTPVLIWNKVKRGHYGVQRTELLPGDRDNLAIQTRGGPEKHEVTGWVLVSPLSKEDAGEYECHASNSQGQASASAKITVVDALHEIPVKKGEGAEL

Each binder was assayed against T1, human CD93 on cells (CD93-transfected …) (assay: flow cytometry, IGFBP7-Ig on CD93-transduced or control HEK293T cells).

Row | binding result | Binder
2 | binds | Human IGFBP7 (Fc-tag), Sino Biological (Fc fusion, Bought; also called IGFBP7-Ig; recombinant IGFBP7 protein; not shown: Fc tag of the bought fusion protein) SSSDTCGPCEPASCPPLPPLGCLLGETRDACGCCPMCARGEGEPCGGGGAGRGYCAPGMECVKSRKRRKGKAGAAAGGPGVSGVCVCKSRYPVCGSDGTTYPSGCQLRAASQRAESRGEKAITQVSKGTCEQGPSIVTPPKDIWNVTGAQVYLSCEVIGIPTPVLIWNKVKRGHYGVQRTELLPGDRDNLAIQTRGGPEKHEVTGWVLVSPLSKEDAGEYECHASNSQGQASASAKITVVDALHEIPVKKGEGAEL

These binders were tested against T1, human CD93 on cells (CD93-transfected …) (assay: flow cytometry, HEK293T supernatant of the Fc-tagged protein on CD93 transfectant; binding index = MFI of CD93 transfectant / MFI of control cells).

Row | binding result | Binder
3 | no binding | ESM1 (Fc fusion, human, UniProt Q9NQ30 20-184, looked up, member of the group m19; HEK293T supernatant) fusion chain: WSNNYAVDCPQHCDSSECKSSPRCKRTVLDDCGCCRVCAAGRGETCYRTVSGMDGMKCGPGLRCQPSNGEDPFGEEFGICKDCPYGTFGMDCRETCNCQSGICDRGTGKCLKFPFFQYSVTKSSNRFVSLTEHDMASGDGNIVREEVVKENAAGSPVMRKWLNPR
4 | no binding | KAZALD1 (Fc fusion, human, UniProt Q96I82 31-304, looked up, member of the group m19; HEK293T supernatant) fusion chain: RPSPGPDYLRRGWMRLLAEGEGCAPCRPEECAAPRGCLAGRVRDACGCCWECANLEGQLCDLDPSAHFYGHCGEQLECRLDTGGDLSRGEVPEPLCACRSQSPLCGSDGHTYSQICRLQEAARARPDANLTVAHPGPCESGPQIVSHPYDTWNVTGQDVIFGCEVFAYPMASIEWRKDGLDIQLPGDDPHISVQFRGGPQRFEVTGWLQIQAVRPSDEGTYRCLGRNALGQVEAPASLTVLTPDQLNSTGIPQLRSLNLVPEEEAESEENDDYY
5 | no binding | IGFBP1 (Fc fusion, human, UniProt P08833 26-259, looked up, member of the group m19; HEK293T supernatant) fusion chain: APWQCAPCSAEKLALCPPVSASCSEVTRSAGCGCCPMCALPLGAACGVATARCARGLSCRALPGEQQPLHALTRGQGACVQESDASAPHAAEAGSPESPESTEITEEELLDNFHLMAPSEEDHSILWDAISTYDGSKALHVTNIKKWKEPCRIELYRVVESLAKAQETSGEEISKFYLPNCNKNGFYHSRQCETSMDGEAGLCWCVYPWNGKRIPGSPEIRGDPNCQIYFNVQN
6 | no binding | WISP1 (Fc fusion, human, UniProt O95388 23-367, looked up, member of the group m19; HEK293T supernatant) fusion chain: TALSPAPTTMDFTPAPLEDTSSRPQFCKWPCECPPSPPRCPLGVSLITDGCECCKMCAQQLGDNCTEAAICDPHRGLYCDYSGDRPRYAIGVCAQVVGVGCVLDGVRYNNGQSFQPNCKYNCTCIDGAVGCTPLCLRVRPPRLWCPHPRRVSIPGHCCEQWVCEDDAKRPRKTAPRDTGAFDAVGEVEAWHRNCIAYTSPWSPCSTSCGLGVSTRISNVNAQCWPEQESRLCNLRPCDVDIHTLIKAGKKCLAVYQPEASMNFTLAGCISTRSYQPKYCGVCMDNRCCIPYKSKTIDVSFQCPDGLGFSRQVLWINACFCNLSCRNPNDIFADLESYPDFSEIAN
7 | no binding | IGFBP2 (Fc fusion, human, UniProt P18065 36-325, looked up, member of the group m19; HEK293T supernatant) fusion chain: AEVLFRCPPCTPERLAACGPPPVAPPAAVAAVAGGARMPCAELVREPGCGCCSVCARLEGEACGVYTPRCGQGLRCYPHPGSELPLQALVMGEGTCEKRRDAEYGASPEQVADNGDDHSEGGLVENHVDSTMNMLGGGGSAGRKPLKSGMKELAVFREKVTEQHRQMGKGGKHHLGLEEPKKLRPPPARTPCQQELDQVLERISTMRLPDERGPLEHLYSLHIPNCDKHGLYNLKQCKMSLNGQRGECWCVNPNTGKLIQGAPTIRGDPECHLFYNEQQEARGVHTQRMQ

More lines, now with the values behind:

Row | Binder | binding result
8 | WISP3 (Fc fusion, human, UniProt O95389 24-354, looked up, member of the group m19; HEK293T supernatant) fusion chain: TGPLDTTPEGRPGEVSDAPQRKQFCHWPCKCPQQKPRCPPGVSLVRDGCGCCKICAKQPGEICNEADLCDPHKGLYCDYSVDRPRYETGVCAYLVAVGCEFNQVHYHNGQVFQPNPLFSCLCVSGAIGCTPLFIPKLAGSHCSGAKGGKKSDQSNCSLEPLLQQLSTSYKTMPAYRNLPLIWKKKCLVQATKWTPCSRTCGMGISNRVTNENSNCEMRKEKRLCYIQPCDSNILKTIKIPKGKTCQPTFQLSKAEKFVFSGCSSTQSYKPTFCGICLDKRCCIPNKSKMITIQFDCPNEGSFKWKMLWITSCVCQRNCREPGDIFSELKIL | no binding
9 | IGFBP4 (Fc fusion, human, UniProt P22692 22-258, looked up, member of the group m19; HEK293T supernatant) fusion chain: DEAIHCPPCSEEKLARCRPPVGCEELVREPGCGCCATCALGLGMPCGVYTPRCGSGLRCYPPRGVEKPLHTLMHGQGVCMELAEIEAIQESLQPSDKDEGDHPNNSFSPCSAHDRRCLQKHFAKIRDRSTSGGKMKVNGAPREDARPVPQGSCQSELHRALERLAASQSRTHEDLYIIPIPNCDRNGNFHPKQCHPALDGQRGKCWCVDRKTGVKLPGGLEPKGELDCHQLADSFRE | no binding
10 | NOV (Fc fusion, not shown: a dimerising Fc or GST; small tags and cut ends, member of the group m19; HEK293T supernatant) TQRCPPQCPGRCPATPPTCAPGVRAVLDGCSCCLVCARQRGESCSDLEPCDESSGLYCDRSADPSNQTGICTAVEGDNCVFDGVIYRSGEKFQPSCKFQCTCRDGQIGCVPRCQLDVLLPEPNCPAPRKVEVPGECCEKWICGPDEEDSLGGLTLAAYRPEATLGVEVSDSSVNCIEQTTEWTACSKSCGMGFSTRVTNRNRQCEMLKQTRLCMVRPCEQEPEQPTDKKGKKCLRTKKSLKAIHLQFKNCTSLHTYKPRFCGVCSDGRCCTPHNTKTIQAEFQCSPGQIVKKPVMVIGTCTCHTNCPKNNEAFLQELELKTTRGKM | no binding
11 | CTGF (Fc fusion, human, UniProt P29279 27-349, looked up, member of the group m19; HEK293T supernatant) fusion chain: QNCSGPCRCPDEPAPRCPAGVSLVLDGCGCCRVCAKQLGELCTERDPCDPHKGLFCHFGSPANRKIGVCTAKDGAPCIFGGTVYRSGESFQSSCKYQCTCLDGAVGCMPLCSMDVRLPSPDCPFPRRVKLPGKCCEEWVCDEPKDQTVVGPALAAYRLEDTFGPDPTMIRANCLVQTTEWSACSKTCGMGISTRVTNDNASCRLEKQSRLCMVRPCEADLEENIKKGKKCIRTPKISKPIKFELSGCTSMKTYRAKFCGVCTDGRCCTPHRTTTLPVEFKCPDGEVMKKNMMFIKTCACHYNCPGDNDIFESLYYRKMYGDMA | no binding
12 | CYR61 (Fc fusion, human, UniProt O00622 25-381, looked up, member of the group m19; HEK293T supernatant) fusion chain: TCPAACHCPLEAPKCAPGVGLVRDGCGCCKVCAKQLNEDCSKTQPCDHTKGLECNFGASSTALKGICRAQSEGRPCEYNSRIYQNGESFQPNCKHQCTCIDGAVGCIPLCPQELSLPNLGCPNPRLVKVTGQCCEEWVCDEDSIKDPMEDQDGLLGKELGFDASEVELTRNNELIAVGKGSSLKRLPVFGMEPRILYNPLQGQKCIVQTTSWSQCSKTCGTGISTRVTNDNPECRLVKETRICEVRPCGQPVYSSLKKGKKCSKTKKSPEPVRFTYAGCLSVKKYRPKYCGSCVDGRCCTPQLTRTVKMRFRCEDGETFSKNVMMIQSCKCNYNCPHANEAAFPFYRLFNDIHKFRD | no binding
13 | IGFBP6 (Fc fusion, human, UniProt P24592 28-240, looked up, member of the group m19; HEK293T supernatant) fusion chain: RCPGCGQGVQAGCPGGCVEEEDGGSPAEGCAEAEGCLRREGQECGVYTPNCAPGLQCHPPKDDEAPLRALLLGRGRCLPARAPAVAEENPKESKPQAGTARPQDVNRRDQQRNPGTSTTPSQPNSAGVQDTEMGPCRRHLDSVLQQLQTEVYRGAQTLYVPNCDHRGFYRKRQCRSSQGQRRGPCWCVDRMGKSLPGSPDGNGSSSCPTGSSG | no binding
